Patent US12397037B2, “Methods and compositions for immunomodulation” (CHILDREN'S MEDICAL CENTER CORPORATION, priority 2014, dated 2025)

System: U87MG cells
Test: Human Phospho-Kinase Array, U87MG cells treated with SEMA3F
Assay type: cell-based
Conditions: 30 minutes
Procedure: FIG. 28A depicts U87MG cells untreated (control) or following treatment with SEMA3F (640 ng/ml) for 30 minutes. Cell lysates were evaluated by phosphoprotein kinase antibody array. FIG. 28B depicts results of the array validated by Western blot analysis. FIG. 28C depicts U87MG cells treated with SEMA3F (640 ng/ml) as a time course up to 60 minutes and were analyzed by Western blot. FIGS. 28B-28C are representative of 3 independent experiments. FIG. 28D depicts U87MG, Jurkat and HUVEC cells treated with SEMA3F (200, 600, 1800 ng/ml, bars from left to right) for 15 minutes (grey bars) or 30 minutes (black bars); as a positive control, HUVEC were treated with VEGF-A (25 ng/ml) for 15 and 30 minutes. In addition, HUVEC were pre-treated with SEMA3F (1800 ng/ml) or PBS as a control for 30 minutes and subsequently VEGF-A (25 ng/ml) was added to the culture for 15 and 30 minutes. PI-3K activity was analyzed by ELISA according to the manufacturer's instructions. Data represent the mean±SD of 3 experiments.
SEMA3F inhibits Akt, mTOR, and S6K phosphorylation. To determine the effect of SEMA3F on intracellular signaling responses, levels of phosphokinases in the NRP2-expressing human glioblastoma cell line U87MG were profiled.
Phospho-kinase array: The Human Phospho-Kinase Array Kit (ARY003) was obtained from R&D Systems. U87MG cells were treated with SEMA3F which was previously found to induce cytoskeletal collapse and inhibit RhoA activity (6). […] Thus, a concentration at 640 ng/ml was optimized to analyze SEMA3F signaling pathways. Cell lysates were collected at 30 minutes after SEMA3F treatment and the levels of phosphoproteins were analyzed with this array, according to the manufacturer's instructions.

B1: SEMA3F: Human recombinant full-length His-Myc-tagged SEMA3F, secreted by transfected 293T cells and purified; class 3 semaphorin, NRP-2 ligand (protein, listed as Homo sapiens)
chain: MLVAGLLLWASLLTGAWPSFPTQDHLPATPRVRLSFKELKATGTAHFFNFLLNTTDYRILLKDEDHDRMYVGSKDYVLSLDLHDINREPLIIHWAASPQRIEECVLSGKDVNGECGNFVRLIQPWNRTHLYVCGTGAYNPMCTYVNRGRRAQATPWTQTQAVRGRGSRATDGALRPMPTAPRQDYIFYLEPERLESGKGKCPYDPKLDTASALINEELYAGVYIDFMGTDAAIFRTLGKQTAMRTDQYNSRWLNDPSFIHAELIPDSAERNDDKLYFFFRERSAEAPQSPAVYARIGRICLNDDGGHCCLVNKWSTFLKARLVCSVPGEDGIETHFDELQDVFVQQTQDVRNPVIYAVFTSSGSVFRGSAVCVYSMADIRMVFNGPFAHKEGPNYQWMPFSGKMPYPRPGTCPGGTFTPSMKSTKDYPDEVINFMRSHPLMYQAVYPLQRRPLVVRTGAPYRLTTIAVDQVDAADGRYEVLFLGTDRGTVQKVIVLPKDDQELEELMLEEVEVFKDPAPVKTMTISSKRQQLYVASAVGVTHLSLHRCQAYGAACADCCLARDPYCAWDGQACSRYTASSKRRSRRQDVRHGNPIRQCRGFNSNANKNAVESVQYGVAGSAAFLECQPRSPQATVKWLFQRDPGDRRREIRAEDRFLRTEQGLLLRALQLSDRGLYSCTATENNFKHVVTRVQLHVLGRDAVHAALFPPLSMSAPPPPGAGPPTPPYQELAQLLAQPEVGLIHQYCQGYWRHVPPSPREAPGAPRSPEPQDQKKPRNRRHHPPDT
modifications: His-Myc tag
notes: Human recombinant full-length His-Myc-tagged SEMA3F, secreted by transfected 293T cells and purified; class 3 semaphorin, NRP-2 ligand
- intensity of dot/phosphoprotein AMPKa1 (T174) (SEMA3F 640 ng/ml, Image J): 0.269
- intensity of dot/phosphoprotein AMPKa2 (T172) (SEMA3F 640 ng/ml, Image J): 0.300
- intensity of dot/phosphoprotein Akt (S473) (SEMA3F 640 ng/ml, Image J): 0.396
- intensity of dot/phosphoprotein Akt (T308) (SEMA3F 640 ng/ml, Image J): 0.294
- intensity of dot/phosphoprotein CREB (S133) (SEMA3F 640 ng/ml, Image J): 0.295
- intensity of dot/phosphoprotein Chk-2 (T68) (SEMA3F 640 ng/ml, Image J): 0.297
- intensity of dot/phosphoprotein ERK1/2 (T202/Y204, T185/Y187) (SEMA3F 640 ng/ml, Image J): 0.301
- intensity of dot/phosphoprotein FAK (Y397) (SEMA3F 640 ng/ml, Image J): 0.275
- intensity of dot/phosphoprotein Fqr (Y412) (SEMA3F 640 ng/ml, Image J): 0.264
- intensity of dot/phosphoprotein Fyn (Y420) (SEMA3F 640 ng/ml, Image J): 0.276
- intensity of dot/phosphoprotein GSK-3a/b (S21/S9) (SEMA3F 640 ng/ml, Image J): 0.284
- intensity of dot/phosphoprotein HSP27 (S78/S82) (SEMA3F 640 ng/ml, Image J): 0.277
- intensity of dot/phosphoprotein Hck (Y411) (SEMA3F 640 ng/ml, Image J): 0.270
- intensity of dot/phosphoprotein JNK pan (T183/Y185, T221/Y223) (SEMA3F 640 ng/ml, Image J): 0.287
- intensity of dot/phosphoprotein Lck (Y394) (SEMA3F 640 ng/ml, Image J): 0.269
- intensity of dot/phosphoprotein Lyn (Y397) (SEMA3F 640 ng/ml, Image J): 0.269
- intensity of dot/phosphoprotein MEK1/2 (S218/S222, S222/S226) (SEMA3F 640 ng/ml, Image J): 0.277
- intensity of dot/phosphoprotein MSK1/2 (S376/S360) (SEMA3F 640 ng/ml, Image J): 0.293
- intensity of dot/phosphoprotein PLCq-1 (Y783) (SEMA3F 640 ng/ml, Image J): 0.262
- intensity of dot/phosphoprotein Paxillin (Y118) (SEMA3F 640 ng/ml, Image J): 0.264
- intensity of dot/phosphoprotein Pyk2 (Y402) (SEMA3F 640 ng/ml, Image J): 0.251
- intensity of dot/phosphoprotein RSK1/2 (S221/S227) (SEMA3F 640 ng/ml, Image J): 0.307
- intensity of dot/phosphoprotein RSK1/2/3 (S380/S386/S377) (SEMA3F 640 ng/ml, Image J): 0.320
- intensity of dot/phosphoprotein STAT1 (Y701) (SEMA3F 640 ng/ml, Image J): 0.298
- intensity of dot/phosphoprotein STAT2 (Y689) (SEMA3F 640 ng/ml, Image J): 0.305
- intensity of dot/phosphoprotein STAT3 (Y705) (SEMA3F 640 ng/ml, Image J): 0.270
- intensity of dot/phosphoprotein STAT4 (Y693) (SEMA3F 640 ng/ml, Image J): 0.285
- intensity of dot/phosphoprotein STAT5a (Y694) (SEMA3F 640 ng/ml, Image J): 0.281
- intensity of dot/phosphoprotein STAT5a/b (Y694/Y699) (SEMA3F 640 ng/ml, Image J): 0.311
- intensity of dot/phosphoprotein STAT5b (Y699) (SEMA3F 640 ng/ml, Image J): 0.270
- intensity of dot/phosphoprotein STAT6 (Y641) (SEMA3F 640 ng/ml, Image J): 0.304
- intensity of dot/phosphoprotein Src (Y419) (SEMA3F 640 ng/ml, Image J): 0.289
- intensity of dot/phosphoprotein TOR (S2448) (SEMA3F 640 ng/ml, Image J): 0.281
- intensity of dot/phosphoprotein Yes (Y426) (SEMA3F 640 ng/ml, Image J): 0.289
- intensity of dot/phosphoprotein b-Catenin (SEMA3F 640 ng/ml, Image J): 0.323
- intensity of dot/phosphoprotein c-Jun (S63) (SEMA3F 640 ng/ml, Image J): 0.263
- intensity of dot/phosphoprotein eNOS (S1177) (SEMA3F 640 ng/ml, Image J): 0.240
- intensity of dot/phosphoprotein p27 (T157) (SEMA3F 640 ng/ml, Image J): 0.249
- intensity of dot/phosphoprotein p27 (T198) (SEMA3F 640 ng/ml, Image J): 0.242
- intensity of dot/phosphoprotein p38a (T180/Y182) (SEMA3F 640 ng/ml, Image J): 0.268
- intensity of dot/phosphoprotein p53 (S15) (SEMA3F 640 ng/ml, Image J): 0.312
- intensity of dot/phosphoprotein p53 (S46) (SEMA3F 640 ng/ml, Image J): 0.321
- intensity of dot/phosphoprotein p53 (S392) (SEMA3F 640 ng/ml, Image J): 0.312
- intensity of dot/phosphoprotein p70 S6 Kinase (T229) (SEMA3F 640 ng/ml, Image J): 0.264
- intensity of dot/phosphoprotein p70 S6 Kinase (T389) (SEMA3F 640 ng/ml, Image J): 0.241
- intensity of dot/phosphoprotein p70 S6 Kinase (T421/S424) (SEMA3F 640 ng/ml, Image J): 0.299
- Ratio AMPKa1 (T174) (SEMA3F vs Control, 640 ng/ml): 92.7
- Ratio AMPKa2 (T172) (SEMA3F vs Control, 640 ng/ml): 94.5
- Ratio Akt (S473) (SEMA3F vs Control, 640 ng/ml): 77.4
- Ratio Akt (T308) (SEMA3F vs Control, 640 ng/ml): 92.6
- Ratio CREB (S133) (SEMA3F vs Control, 640 ng/ml): 91.3
- Ratio Chk-2 (T68) (SEMA3F vs Control, 640 ng/ml): 93.4
- Ratio ERK1/2 (T202/Y204, T185/Y187) (SEMA3F vs Control, 640 ng/ml): 91.2
- Ratio FAK (Y397) (SEMA3F vs Control, 640 ng/ml): 87.7
- Ratio Fqr (Y412) (SEMA3F vs Control, 640 ng/ml): 94.1
- Ratio Fyn (Y420) (SEMA3F vs Control, 640 ng/ml): 93.1
- Ratio GSK-3a/b (S21/S9) (SEMA3F vs Control, 640 ng/ml): 91.0
- Ratio HSP27 (S78/S82) (SEMA3F vs Control, 640 ng/ml): 94.0
- Ratio Hck (Y411) (SEMA3F vs Control, 640 ng/ml): 91.4
- Ratio JNK pan (T183/Y185, T221/Y223) (SEMA3F vs Control, 640 ng/ml): 91.5
- Ratio Lck (Y394) (SEMA3F vs Control, 640 ng/ml): 94.2
- Ratio Lyn (Y397) (SEMA3F vs Control, 640 ng/ml): 93.7
- Ratio MEK1/2 (S218/S222, S222/S226) (SEMA3F vs Control, 640 ng/ml): 92.8
- Ratio MSK1/2 (S376/S360) (SEMA3F vs Control, 640 ng/ml): 92.4
- Ratio PLCq-1 (Y783) (SEMA3F vs Control, 640 ng/ml): 95.1
- Ratio Paxillin (Y118) (SEMA3F vs Control, 640 ng/ml): 95.8
- Ratio Pyk2 (Y402) (SEMA3F vs Control, 640 ng/ml): 93.1
- Ratio RSK1/2 (S221/S227) (SEMA3F vs Control, 640 ng/ml): 97.8
- Ratio RSK1/2/3 (S380/S386/S377) (SEMA3F vs Control, 640 ng/ml): 98.8
- Ratio STAT1 (Y701) (SEMA3F vs Control, 640 ng/ml): 98.2
- Ratio STAT2 (Y689) (SEMA3F vs Control, 640 ng/ml): 95.3
- Ratio STAT3 (Y705) (SEMA3F vs Control, 640 ng/ml): 93.4
- Ratio STAT4 (Y693) (SEMA3F vs Control, 640 ng/ml): 96.4
- Ratio STAT5a (Y694) (SEMA3F vs Control, 640 ng/ml): 94.8
- Ratio STAT5a/b (Y694/Y699) (SEMA3F vs Control, 640 ng/ml): 90.1
- Ratio STAT5b (Y699) (SEMA3F vs Control, 640 ng/ml): 92.6
- Ratio STAT6 (Y641) (SEMA3F vs Control, 640 ng/ml): 96.3
- Ratio Src (Y419) (SEMA3F vs Control, 640 ng/ml): 91.0
- Ratio TOR (S2448) (SEMA3F vs Control, 640 ng/ml): 91.8
- Ratio Yes (Y426) (SEMA3F vs Control, 640 ng/ml): 94.6
- Ratio b-Catenin (SEMA3F vs Control, 640 ng/ml): 91.6
- Ratio c-Jun (S63) (SEMA3F vs Control, 640 ng/ml): 94.3
- Ratio eNOS (S1177) (SEMA3F vs Control, 640 ng/ml): 93.9
- Ratio p27 (T157) (SEMA3F vs Control, 640 ng/ml): 94.3
- Ratio p27 (T198) (SEMA3F vs Control, 640 ng/ml): 94.0
- Ratio p38a (T180/Y182) (SEMA3F vs Control, 640 ng/ml): 91.8
- Ratio p53 (S15) (SEMA3F vs Control, 640 ng/ml): 96.7
- Ratio p53 (S46) (SEMA3F vs Control, 640 ng/ml): 93.6
- Ratio p53 (S392) (SEMA3F vs Control, 640 ng/ml): 94.0
- Ratio p70 S6 Kinase (T229) (SEMA3F vs Control, 640 ng/ml): 100.0
- Ratio p70 S6 Kinase (T389) (SEMA3F vs Control, 640 ng/ml): 95.6
- Ratio p70 S6 Kinase (T421/S424) (SEMA3F vs Control, 640 ng/ml): 97.4
